For series [1], the system named is T1, leucyl oligopeptide of SEQ ID NO: 2.
T1 sequence: LFPTEPS

For series [2], the system named is T2, methionyl oligopeptide of SEQ ID NO: 1 (Met-Phe-Pro-Thr-Glu-Pro-Ser).
T2 sequence: MFPTEPS

The target in series [3] is methionyl human growth hormone (UniProt P01241).

The record followed here is US6428997.

Sequence of methionyl human growth hormone (P01241 other isoform, or with tags, fused parts or gaps): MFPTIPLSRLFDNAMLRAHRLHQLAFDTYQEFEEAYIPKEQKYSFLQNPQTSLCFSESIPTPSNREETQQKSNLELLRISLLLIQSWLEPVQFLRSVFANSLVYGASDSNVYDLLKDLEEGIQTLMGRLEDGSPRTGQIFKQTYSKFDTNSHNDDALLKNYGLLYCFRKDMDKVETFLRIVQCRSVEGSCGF

In the case of “aminopeptidase from Bacillus licheniformis (purified from Bacillus licheniformis ATCC 12759)”, in series [1], the Kcat/Km was 1.63e+06 M⁻¹ s⁻¹, the Km was found to be 172 µM and the kcat came out at 276 s⁻¹. In addition, in series [2], the Kcat/Km was found to be 56100 M⁻¹ s⁻¹, the Km turned out to be 387 µM and the kcat turned out to be 21.1 s⁻¹. For the same substance, in series [3], the “removal of N-terminal methionine (N-terminal sequencing of the recovered HGH)” value is on record as “remove N-terminal methionine of methionyl HGH completely” and the “removal of N-terminal methionine, large scale (N-terminal sequencing of the recovered HGH)” value is listed as “HGH produced by the above process had phenylalanine at the N-terminus due to methionine removal”.
